Substitutions are numbered along the chain they refer to. Values belong to the binder of their own block, whether it stands above or below them.
Legend:
[1] = target: T1, r murine EphA3 (mouse, UniProt P29319); test: activity ELISA, Fab on coated antigen
T1 construct: recombinant Fc fusion (R&D Systems); also called rmuEphA3-Fc; mEphA3
T1 sequence (receptor-Fc fusion, looked up): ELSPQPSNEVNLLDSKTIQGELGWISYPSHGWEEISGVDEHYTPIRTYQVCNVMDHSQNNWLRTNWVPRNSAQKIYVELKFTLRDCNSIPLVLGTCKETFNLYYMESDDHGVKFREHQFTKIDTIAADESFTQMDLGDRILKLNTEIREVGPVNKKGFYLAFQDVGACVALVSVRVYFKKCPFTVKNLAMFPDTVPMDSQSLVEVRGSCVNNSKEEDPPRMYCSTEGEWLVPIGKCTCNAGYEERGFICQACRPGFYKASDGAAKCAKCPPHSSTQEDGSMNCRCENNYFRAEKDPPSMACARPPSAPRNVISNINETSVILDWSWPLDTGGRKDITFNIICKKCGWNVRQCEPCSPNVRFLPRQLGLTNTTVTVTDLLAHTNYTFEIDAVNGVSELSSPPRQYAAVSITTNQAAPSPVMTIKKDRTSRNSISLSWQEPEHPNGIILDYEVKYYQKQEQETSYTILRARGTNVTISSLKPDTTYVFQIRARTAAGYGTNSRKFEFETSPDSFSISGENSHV
Method: (§1) More precisely, Nunc Maxisorp plates were coated with the following rEphA proteins: rhuEphAl-Fc, rmuEphA2-Fc, rmuEphA3-Fc, rmuEphA4-Fc, rratEphA5-Fc, rmuEphA6-Fc, rmuEphA7-Fc, rEphA8; all at 0.5 μg/well (all R&D Systems) rhuEphA2-Fc; 0.5 μg/well, and rhuEphA4-His; 0.1 μg/well (both produced at MedImmune, Inc.). Plates were blocked with 3% BSA+0.1% Tween20 for 2 h. […] Incubation with a goat anti-human kappa horseradish peroxydase (HRP) conjugate then followed. HRP activity was detected with TMB substrate and the reaction quenched with 0.2 M H₂SO₄. Plates were read at 450 nm. Data was analyzed by normalizing Fab concentrations to the corresponding activity data (see FIGS. 10B-10H).

[2] = target: T2, r murine EphA4 (mouse, UniProt Q03137); test: activity ELISA, Fab on coated antigen
T2 construct: recombinant Fc fusion (R&D Systems); also called rmuEphA4-Fc; mEphA4
Method: as §1

[3] = target: T3, r murine EphA7 (mouse, UniProt Q61772); test: activity ELISA, Fab on coated antigen
T3 construct: recombinant Fc fusion (R&D Systems); also called rmuEphA7-Fc; mEphA7
T3 sequence (receptor-Fc fusion, looked up): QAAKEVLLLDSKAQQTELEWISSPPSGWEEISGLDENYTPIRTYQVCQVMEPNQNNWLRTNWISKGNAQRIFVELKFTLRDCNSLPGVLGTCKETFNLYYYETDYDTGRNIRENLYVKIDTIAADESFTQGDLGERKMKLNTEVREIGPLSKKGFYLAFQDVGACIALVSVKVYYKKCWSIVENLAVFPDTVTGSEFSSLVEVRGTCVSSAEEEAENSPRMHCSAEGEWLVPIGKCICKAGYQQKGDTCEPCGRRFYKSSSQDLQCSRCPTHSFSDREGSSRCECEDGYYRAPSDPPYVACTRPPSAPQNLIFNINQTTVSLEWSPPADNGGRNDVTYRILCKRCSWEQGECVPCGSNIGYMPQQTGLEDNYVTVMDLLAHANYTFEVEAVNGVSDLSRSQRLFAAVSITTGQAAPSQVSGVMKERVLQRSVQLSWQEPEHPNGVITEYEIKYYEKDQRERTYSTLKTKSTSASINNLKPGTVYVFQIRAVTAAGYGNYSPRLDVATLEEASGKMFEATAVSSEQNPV
Method: as §1

[4] = target: T4, human EphA4 (construct not given) (human, UniProt P54764 20-547, limits assumed); test: capture ELISA, 25 ng/well sheep anti-human Fd
T4 construct: also called EphA4 receptor

[5] = target: T1, r murine EphA3; test: activity ELISA, IgG on coated antigen
Method: (§2) Secondary screening of IgG constructs of affinity optimized combinatorial variants with additional EphA receptors: With purified IgG constructs of the nine combinatorial variants, additional secondary screening assays were performed using the Activity ELISA (see above) and recombinant EphA receptor proteins. More precisely, Nunc Maxisorp plates were coated with the following rEphA proteins: rhuEphAl-Fc; 0.5 μg/well, rmuEphA2-Fc; 0.5 μg/well, rmuEphA3-Fc: 0.1 μg/well, rmuEphA4-Fc; 0.1 μg/well, rratEphA5-Fc; 0.5 μg/well, rmuEphA6-Fc; 0.5 μg/well, rmuEphA7-Fc; 0.1 μg/well, rEphA8; 0.2 μg/well (all R&D Systems), rhuEphA2-Fc; 0.5 μg/well, and rhuEphA4-His; 0.1 μg/well (both produced at MedImmune, Inc.). Plates were blocked with 3% BSA+0.1% Tween20 for 2 h. […] Incubation with a goat anti-human kappa horseradish peroxydase (HRP) conjugate then followed. HRP activity was detected with TMB substrate and the reaction quenched with 0.2 M H₂SO₄. Plates were read at 450 nm. Data was analyzed by normalizing Fab concentrations to the corresponding activity data (see FIGS. 12A-12J and 14).

[6] = target: T2, r murine EphA4; test: activity ELISA, IgG on coated antigen
Method: as §2

[7] = target: T3, r murine EphA7; test: activity ELISA, IgG on coated antigen
Method: as §2

[8] = target: T5, Human EphA4-Fc fusion protein (human, UniProt P54764 20-547); test: BIAcore, IgG immobilized on the sensor chip, EphA4-Fc as analyte
T5 construct: not shown: Fc portion of a human IgG1
Method: (§3) FIG. 15A-15B. […] Binding affinities were measured using the BIAcore assay. […] Variant kinetic measurements for human EphA4 and were obtained using BIAcore with immobilized variant antibodies and human EphA4-Fc and EphA4-His as analytes.

[9] = target: T6, Human EphA4-His fusion protein (human, UniProt P54764 20-547); test: BIAcore, IgG immobilized on the sensor chip, EphA4-his as analyte
T6 construct: also called rhuEphA4-His; not shown: Histidine tag
Method: as §3

[10] = target: T7, mEphA3 (mouse, UniProt P29319); test: ELISA, receptor coated on the plate, purified IgG, anti-human kappa-HRP
T7 construct: part of an Fc fusion; also called rmuEphA3-Fc
T7 sequence (receptor-Fc fusion, looked up): T1 sequence (receptor-Fc fusion, looked up)
Method: as §2

[11] = target: T8, mEphA4 (mouse, UniProt Q03137); test: as above
T8 construct: part of an Fc fusion; also called rmuEphA4-Fc
Method: as §2

[12] = target: T9, mEphA7 (mouse, UniProt Q61772); test: as above
T9 construct: part of an Fc fusion; also called rmuEphA7-Fc
T9 sequence (receptor-Fc fusion, looked up): T3 sequence (receptor-Fc fusion, looked up)
Method: as §2

[13] = target: T10, r murine EphA8 (mouse, UniProt O09127); test: activity ELISA, Fab on coated antigen
T10 construct: recombinant (rEphA8, R&D Systems); also called rEphA8
T10 sequence (receptor, looked up): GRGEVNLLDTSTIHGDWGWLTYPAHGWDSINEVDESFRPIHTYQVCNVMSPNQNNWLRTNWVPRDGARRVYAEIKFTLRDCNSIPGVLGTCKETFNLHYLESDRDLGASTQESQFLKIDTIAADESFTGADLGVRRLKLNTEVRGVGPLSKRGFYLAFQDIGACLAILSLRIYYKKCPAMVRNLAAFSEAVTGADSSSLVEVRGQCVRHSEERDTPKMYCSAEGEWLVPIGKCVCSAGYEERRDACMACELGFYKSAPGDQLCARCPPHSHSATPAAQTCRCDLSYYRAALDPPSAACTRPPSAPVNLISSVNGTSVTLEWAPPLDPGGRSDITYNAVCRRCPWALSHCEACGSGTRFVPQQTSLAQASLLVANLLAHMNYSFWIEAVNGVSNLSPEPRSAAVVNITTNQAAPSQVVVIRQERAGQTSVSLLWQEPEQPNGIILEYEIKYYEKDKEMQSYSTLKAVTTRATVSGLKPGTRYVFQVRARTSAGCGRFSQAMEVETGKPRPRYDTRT
Method: as §1

[14] = target: T11, r murine EphA8 (mouse, UniProt O09127); test: Activity ELISA, receptor coated on the plate, purified IgG, anti-human kappa-HRP, OD 450 nm
T11 construct: recombinant soluble protein coated on the plate; also called mEphA8; rEphA8
T11 sequence (receptor construct, looked up): T10 sequence (receptor, looked up)
Method: as §2

[15] = target: T6, Human EphA4-His fusion protein; test: BIAcore, IgG immobilized on the sensor chip, EphA4-his as analyte; comment on the sheet: marginal fit
Method: as §3

[16] = target: T5, Human EphA4-Fc fusion protein; test: BIAcore, IgG immobilized on the sensor chip, EphA4-Fc as analyte; comment on the sheet: marginal kinetic fit
Method: as §3

T5 sequence (P54764 20-547): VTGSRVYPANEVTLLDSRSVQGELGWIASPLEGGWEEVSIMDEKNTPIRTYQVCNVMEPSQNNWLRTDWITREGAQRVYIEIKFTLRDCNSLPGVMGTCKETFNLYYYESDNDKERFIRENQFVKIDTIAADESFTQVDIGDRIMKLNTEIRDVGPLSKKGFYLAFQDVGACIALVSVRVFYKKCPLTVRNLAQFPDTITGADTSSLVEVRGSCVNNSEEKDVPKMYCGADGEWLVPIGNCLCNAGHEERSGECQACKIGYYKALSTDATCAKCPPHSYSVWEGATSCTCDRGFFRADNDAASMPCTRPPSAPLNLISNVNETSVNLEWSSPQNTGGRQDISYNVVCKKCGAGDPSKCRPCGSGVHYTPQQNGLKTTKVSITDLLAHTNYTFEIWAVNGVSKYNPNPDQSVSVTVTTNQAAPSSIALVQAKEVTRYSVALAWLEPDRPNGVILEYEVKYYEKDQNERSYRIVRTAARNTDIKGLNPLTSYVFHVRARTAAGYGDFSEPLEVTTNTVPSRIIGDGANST
T6 sequence (P54764 20-547): as above
T2 sequence (Q03137 20-547 limits assumed): as the sequence (P54764 20-547) above, with P59A, N121S, V124G, R250Q, S251N, T270S, K378R, N406S counted along it
T8 sequence (Q03137 20-547 limits assumed): as the sequence (P54764 20-547) above, with P59A, N121S, V124G, R250Q, S251N, T270S, K378R, N406S counted along it
T4 sequence (P54764 20-547 limits assumed): as the sequence (P54764 20-547) above

- binding result [1]: binds
- binding result [2]: binds
- binding result [3]: binds
B1: 6B7 Fab (affinity optimized combinatorial variant of Fab20) (Fab, V domains shown)
VH: QVQLLQSGAEVKKPGASVKVPCKASGYTFTSRAMSWVRQAPGQGLEWMGWINTNTGNPTYAQGFTGRFVFSLDTSVSTAYLQISSLKAEDTAVYYCARVRFTVYGDGMDVWGQGTLVTVSS
VL: EIVLTQSPATLSVSPGERATLSCRASQSVSSNPAWYQQKPGQAPRLLIYGASTRATGIPDRFSASGSGTDFTLTISRVEPEDFAVYYCQQYGPSWTFGQGTKVEIK

- fold increase in affinity over Fab20 parental background [4]: 1.6 fold
B2: 11G6 Fab (affinity optimized CDR3 heavy variant of Fab20) (Fab, V domains shown)
VH: B1 VH with R32Y
VL: B1 VL with P33L, P93S

- binding result [5]: binds
- binding result [6]: binds
- binding result [7]: binds
- Kd [8]: 0.037 nM
- koff [8]: 2.87e-05 s⁻¹
- kon [8]: 769000 M⁻¹ s⁻¹
- Kd [9]: 0.8 nM
- koff [9]: 0.000345 s⁻¹
- kon [9]: 431000 M⁻¹ s⁻¹
- binding result [10]: binds
- binding result [11]: binds
- binding result [12]: binds
B3: 1A4 IgG1 (affinity optimized combinatorial variant of mAb GEA44 in human IgG1 format) (antibody, V domains shown)
VH: B1 VH with F64S
VL: B1 VL

- fold increase in affinity over Fab20 parental background [4]: 1.4 fold
B4: 11H1 Fab (single-change CDR3 heavy variant of Fab20) (Fab, V domains shown)
VH: B1 VH with R32Y, F101L
VL: B1 VL with P33L, P93S
notes: also called GEA44 derivative 11H1

- binding result [2]: binds
- binding result [3]: binds
- binding result [13]: binds
B5: 2C9 Fab (affinity optimized combinatorial variant of Fab20) (Fab, V domains shown)
VH: B1 VH
VL: B1 VL with P33L, A55P

- binding result [1]: binds
- binding result [2]: binds
- binding result [3]: binds
B6: 1G11 Fab (affinity optimized combinatorial variant of Fab20) (Fab, V domains shown)
VH: B1 VH
VL: B1 VL with P33L, A34P, A55P

- binding result [6]: binds
- binding result [7]: binds
- Kd [8]: 0.044 nM
- koff [8]: 1.91e-05 s⁻¹
- kon [8]: 434000 M⁻¹ s⁻¹
- binding result [11]: binds
- binding result [12]: binds
- binding result [14]: binds
B7: 2C9 IgG1 (affinity optimized combinatorial variant of mAb GEA44 in human IgG1 format) (antibody, V domains shown)
VH: B1 VH
VL: B1 VL with P33L, A55P

- binding result [6]: binds
- binding result [7]: binds
- binding result [11]: binds
- binding result [12]: binds
- Kd [15]: 1 nM
- koff [15]: 0.000602 s⁻¹
- kon [15]: 600000 M⁻¹ s⁻¹
- Kd [16]: 0.023 nM
- koff [16]: 5.41e-05 s⁻¹
- kon [16]: 2.33e+06 M⁻¹ s⁻¹
B8: 1B10 IgG1 (affinity optimized combinatorial variant of mAb GEA44 in human IgG1 format) (antibody, V domains shown)
VH: B1 VH
VL: B1 VL with R54W

- binding result [1]: binds
- binding result [2]: binds
- binding result [3]: binds
B9: 1A4 Fab (affinity optimized combinatorial variant of Fab20) (Fab, V domains shown)
VH: B1 VH with F64S
VL: B1 VL

- binding result [5]: binds
- binding result [6]: binds
- binding result [7]: binds
- Kd [8]: 0.059 nM
- koff [8]: 1.01e-05 s⁻¹
- kon [8]: 172000 M⁻¹ s⁻¹
- binding result [10]: binds
- binding result [11]: binds
- binding result [12]: binds
B10: 1G11 IgG1 (affinity optimized combinatorial variant of mAb GEA44 in human IgG1 format) (antibody, V domains shown)
VH: B1 VH
VL: B1 VL with P33L, A34P, A55P
